One molecule from publication PMC6277001 (Molecular cancer research : MCR, 2018) can be followed below.

The assay addresses T1, GST-β-catenin^4A (UniProt P35222 1-781, S33A | S37A | T41A | S45A).
T1 sequence: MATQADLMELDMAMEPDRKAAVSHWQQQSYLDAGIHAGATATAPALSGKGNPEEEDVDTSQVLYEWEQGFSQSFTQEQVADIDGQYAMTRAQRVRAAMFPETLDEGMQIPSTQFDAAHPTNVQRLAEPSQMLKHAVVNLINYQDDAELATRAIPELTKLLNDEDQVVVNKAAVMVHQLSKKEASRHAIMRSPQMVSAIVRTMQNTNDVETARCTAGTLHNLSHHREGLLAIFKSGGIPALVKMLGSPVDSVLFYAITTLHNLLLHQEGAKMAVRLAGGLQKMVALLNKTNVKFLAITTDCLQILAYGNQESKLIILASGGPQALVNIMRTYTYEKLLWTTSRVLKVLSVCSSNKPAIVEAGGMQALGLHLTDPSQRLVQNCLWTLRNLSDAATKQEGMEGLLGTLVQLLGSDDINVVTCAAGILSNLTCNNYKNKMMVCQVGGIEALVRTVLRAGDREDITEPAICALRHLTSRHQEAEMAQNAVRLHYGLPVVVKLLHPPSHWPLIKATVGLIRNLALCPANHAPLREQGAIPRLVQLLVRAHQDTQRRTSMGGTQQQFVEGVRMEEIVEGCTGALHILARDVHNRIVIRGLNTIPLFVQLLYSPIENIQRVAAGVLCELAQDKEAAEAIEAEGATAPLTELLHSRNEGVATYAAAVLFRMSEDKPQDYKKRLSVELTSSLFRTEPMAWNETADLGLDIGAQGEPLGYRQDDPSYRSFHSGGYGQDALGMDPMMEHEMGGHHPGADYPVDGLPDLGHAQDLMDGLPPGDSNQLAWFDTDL
As to the kind of experiment: pull-down.

B1: 6xHis-FLYWCH1 (natural protein)
chain: MPLPEPSEQEGESVKAGQEPSPKPGTDVIPAAPRKPREFSKLVLLTASDQDEDGVGSKPQEVHCVLSLEMAGPATLASTLQILPVEEQGGVVQPALEMPEQKCSKLDAAAPQSLEFLRTPFGGRLLVLESFLYKQEKAVGDKVYWKCRQHAELGCRGRAITRGLRATVMRGHCHAPDEQGLEARRQREKLPSLALPEGLGEPQGPEGPGGRVEEPLEGVGPWQCPEEPEPTPGLVLSKPALEEEEAPRALSLLSLPPKKRSILGLGQARPLEFLRTCYGGSFLVHESFLYKREKAVGDKVYWTCRDHALHGCRSRAITQGQRVTVMRGHCHQPDMEGLEARRQQEKAVETLQAGQDGPGSQVDTLLRGVDSLLYRRGPGPLTLTRPRPRKRAKVEDQELPTQPEAPDEHQDMDADPGGPEFLKTPLGGSFLVYESFLYRREKAAGEKVYWTCRDQARMGCRSRAITQGRRVTVMRGHCHPPDLGGLEALRQREKRPNTAQRGSPGGPEFLKTPLGGSFLVYESFLYRREKAAGEKVYWTCRDQARMGCRSRAITQGRRVMVMRRHCHPPDLGGLEALRQREHFPNLAQWDSPDPLRPLEFLRTSLGGRFLVHESFLYRKEKAAGEKVYWMCRDQARLGCRSRAITQGHRIMVMRSHCHQPDLAGLEALRQRERLPTTAQQEDPEKIQVQLCFKTCSPESQQIYGDIKDVRLDGESQ
As for B1, the binding result is “binds”.
